The subject of this series is ATP. As to the kind of experiment: switch fluorescence ratio, 500 uM ATP over buffer (Cy3 cluster intensity, sum of 5 cycles each) (fold (ratio)); higher = stronger signal-on switching upon ATP binding; sequences stand for … in TCGTCGGCAGCGTCAGATGTGTATAAGAGACAGTTTTTTTTTTTTTTTTTTTTTTTTT…TC. The following applies: aptamer strand: ATP DNA aptamer (quencher-CACCTGGGGGAGTATTGCGGAGGAAGG + anchor), 100 nM annealed; ATP concentration: 500 uM. The procedure, abridged:
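Clusters carrying Cy3-labelled switching strands on a modified Illumina MiSeq flow-cell were annealed to 100 nM quencher-labelled ATP aptamer and imaged in selection buffer. They were imaged again after 15 min with 500 uM ATP at 22 °C, over five buffer/ATP cycles with NaOH stripping and re-annealing in between. For each cluster, the fluorescence ratio is the summed Cy3 intensity of the target cycles divided by that of the buffer cycles, averaged per switch-domain sequence. Clusters outside 100-1000 RFU were left out.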

± gives the standard deviation of the averaged measurements.
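Note: ATP exposure 15 min at 22 °C before imaging.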

For the sequence TTTTCGTGGC, the switch fluorescence ratio was 0.989 ± 0.1.

As to GGGTTTCAGA, the switch fluorescence ratio was 1.01 ± 0.028.

With TATTCTACCA, the switch fluorescence ratio came out at 1.01 ± 0.011.

With GACGTTCATA, the switch fluorescence ratio is 1.083 ± 0.0089.

With AATCTAATTG, the switch fluorescence ratio was 1.002 ± 0.0038.

For the sequence CCCATGTTAA, the switch fluorescence ratio came to 0.993 ± 0.018.

Turning to TCGTAATAGG, the switch fluorescence ratio was 1.118 ± 0.011.

Turning to GGCGGTGGCG, the switch fluorescence ratio was determined as 0.994 ± 0.1.

Take CCCGGTCGGC: the switch fluorescence ratio is 0.983 ± 0.0038.

Turning to CTGTGGCTGG, the switch fluorescence ratio stood at 0.9795 ± 0.0073.

In the case of GGATCTTTTT, the switch fluorescence ratio worked out at 1.03 ± 0.026.

On to GAAGATAGGG, for which the switch fluorescence ratio came to 0.998 ± 0.011.

As for TTATTTGCCT, the switch fluorescence ratio was 1.17 ± 0.18.

Consider AGAATCTTGC, for which the switch fluorescence ratio stood at 1.167 ± 0.0026.

As to AAAATCGCTT, the switch fluorescence ratio turned out to be 1.01 ± 0.065.

For the sequence GTTTAGGAGG, the switch fluorescence ratio was 0.989 ± 0.022.

As to AGTAGCCTGA, the switch fluorescence ratio turned out to be 1.01 ± 0.013.

In the case of GGGGGATCAT, the switch fluorescence ratio came out at 0.9921 ± 0.0016.

CGATCACCTG: the switch fluorescence ratio was 1.02 ± 0.063.

With TGGTTTTGC, the switch fluorescence ratio is 1.01 ± 0.023.

Regarding TCTATTGGCT, the switch fluorescence ratio is 1.016 ± 0.0049.

Take AAAGTGCCCG: the switch fluorescence ratio was 0.979 ± 0.022.

On to GAGGTCGTGA, for which the switch fluorescence ratio worked out at 0.975 ± 0.019.

For the sequence TTGGGTTAAC, the switch fluorescence ratio is 0.9737 ± 0.006.

As for GACGAATGGG, the switch fluorescence ratio was found to be 0.985 ± 0.015.

With TTAAATAGGT, the switch fluorescence ratio amounted to 0.9956 ± 0.0088.

Turning to CCAATATTTA, the switch fluorescence ratio came to 0.994 ± 0.03.

In the case of TTTTAAGACG, the switch fluorescence ratio worked out at 0.979 ± 0.069.

Consider TCGGTTGTGA, for which the switch fluorescence ratio was 0.999 ± 0.011.

For ATACCGAGGA, the switch fluorescence ratio is 1.04 ± 0.051.

For the sequence GGAATTATGT, the switch fluorescence ratio amounted to 1.02 ± 0.041.

With GATGATTGGT, the switch fluorescence ratio is 0.998 ± 0.015.

Take TTCAACTTAT: the switch fluorescence ratio was determined as 0.954 ± 0.049.

Regarding CTATTTTAAG, the switch fluorescence ratio stood at 1.02 ± 0.051.

As for TCATAGCGCC, the switch fluorescence ratio turned out to be 1.01 ± 0.045.

Turning to GCTATGGTGC, the switch fluorescence ratio turned out to be 1.026 ± 0.0038.

For the sequence ATTTTCATGG, the switch fluorescence ratio amounted to 0.954 ± 0.02.

Take CGGGATGATT: the switch fluorescence ratio was 0.998 ± 0.044.

On to TCTCAAGGCG, for which the switch fluorescence ratio was found to be 1.03 ± 0.0089.

As to TGGATTTTGC, the switch fluorescence ratio worked out at 0.989 ± 0.029.

As for GTAATCTCTG, the switch fluorescence ratio was found to be 1.01 ± 0.028.

For GCATAGAAAA, the switch fluorescence ratio was determined as 0.982 ± 0.015.

In the case of AGATTTTTGG, the switch fluorescence ratio was 1.003 ± 0.0026.

Take GTGGAGAAAT: the switch fluorescence ratio was found to be 1.04 ± 0.047.

Take AGGAACGCGG: the switch fluorescence ratio was found to be 1.04 ± 0.018.

Turning to CAGTGACTTT, the switch fluorescence ratio was found to be 1.022 ± 0.0014.

Take GATCTTCGTT: the switch fluorescence ratio turned out to be 1.01 ± 0.041.

On to TATAAGGTGT, for which the switch fluorescence ratio is 1.23 ± 0.11.

For AAAATTTGTG, the switch fluorescence ratio was 0.995 ± 0.017.

Take ATCGATAGTG: the switch fluorescence ratio is 1 ± 0.03.

On to TGATTTTTGT, for which the switch fluorescence ratio worked out at 0.997 ± 0.021.

With TTGGTGGCGT, the switch fluorescence ratio worked out at 0.995 ± 0.01.

Regarding CGTTTGGGGA, the switch fluorescence ratio was 0.99 ± 0.015.

With CGTGTCTTAA, the switch fluorescence ratio turned out to be 0.974 ± 0.021.

For TACAGACCCG, the switch fluorescence ratio was found to be 1.07 ± 0.062.

With AAGCCTTTGC, the switch fluorescence ratio was 1.052 ± 0.0041.

CAGTGTGCAG: the switch fluorescence ratio was 0.9602 ± 0.0028.

Turning to TTGTGATCGG, the switch fluorescence ratio amounted to 0.978 ± 0.03.

On to GGAGACGGGA, for which the switch fluorescence ratio stood at 1.06 ± 0.016.

Take TGGTTAATGC: the switch fluorescence ratio was determined as 1.48 ± 0.1.

On to TGTAGGGGCT, for which the switch fluorescence ratio is 0.982 ± 0.026.

With CGAGGGTCTC, the switch fluorescence ratio stood at 1.01 ± 0.029.

With CTAGATGGGT, the switch fluorescence ratio was 1.01 ± 0.046.

As to GATGGAGTTG, the switch fluorescence ratio was 1.013 ± 0.0053.

CACGGGGGCG: the switch fluorescence ratio was determined as 1 ± 0.049.

Turning to GAGGCTTAAT, the switch fluorescence ratio was determined as 0.9822 ± 0.0078.

In the case of AACCGCGCTT, the switch fluorescence ratio was determined as 1.18 ± 0.083.

In the case of TCTTAGTTCA, the switch fluorescence ratio is 0.9825 ± 0.0062.

Take TTAAGGTCGG: the switch fluorescence ratio came to 1 ± 0.012.

In the case of GATGTTCAGG, the switch fluorescence ratio was 0.9875 ± 0.0011.

In the case of TGGGAGTACT, the switch fluorescence ratio worked out at 1.0104 ± 0.00041.

With TTACCCCAGT, the switch fluorescence ratio came out at 1.21 ± 0.036.

As to TGAGTTAGGC, the switch fluorescence ratio amounted to 1.04 ± 0.054.

CTATGGAAGG: the switch fluorescence ratio was found to be 0.98 ± 0.013.

Regarding GCGGGGTATG, the switch fluorescence ratio stood at 0.9908 ± 0.008.

As for TTGTATGTCT, the switch fluorescence ratio was 0.991 ± 0.044.

As to GGGGGAAGTG, the switch fluorescence ratio was found to be 0.976 ± 0.026.

On to GATTCACGGT, for which the switch fluorescence ratio is 1.01 ± 0.02.

In the case of TTTAAGCACG, the switch fluorescence ratio came out at 1.09 ± 0.041.

As to ATGGTTCCTG, the switch fluorescence ratio stood at 1.03 ± 0.078.

Consider CATTAATCAT, for which the switch fluorescence ratio came out at 0.995 ± 0.048.

Take GGGAAGGAGG: the switch fluorescence ratio is 1.02 ± 0.013.

As for CCCTGAATTG, the switch fluorescence ratio amounted to 0.984 ± 0.053.

As for GTTCGGCGGC, the switch fluorescence ratio was 0.991 ± 0.016.

As for TTAGGGGTTG, the switch fluorescence ratio came to 0.979 ± 0.024.

For the sequence AGGTCGGCAT, the switch fluorescence ratio was 0.997 ± 0.02.

In the case of TGGGGATGGG, the switch fluorescence ratio stood at 0.996 ± 0.029.

As for GTTTGCAAAT, the switch fluorescence ratio turned out to be 0.991 ± 0.034.

For AGTAGGGGAC, the switch fluorescence ratio was 0.994 ± 0.022.

As for CGTTCTCTGT, the switch fluorescence ratio was found to be 0.987 ± 0.029.

Take CAACAGGGGG: the switch fluorescence ratio amounted to 1.06 ± 0.056.

Regarding GATTTTGTAG, the switch fluorescence ratio came out at 1.01 ± 0.028.

Take TGGGGGATAT: the switch fluorescence ratio stood at 1.05 ± 0.052.

Turning to TTATTAGTAG, the switch fluorescence ratio is 1.002 ± 0.0049.

Turning to TTTGGTAAGT, the switch fluorescence ratio worked out at 1.022 ± 0.01.

As for GGGTCAAGCG, the switch fluorescence ratio is 0.943 ± 0.017.

ACGATTATGC: the switch fluorescence ratio turned out to be 1.04 ± 0.11.

Take TTCTGTTATC: the switch fluorescence ratio was 1.023 ± 0.0087.

As to GGATTTTTTC, the switch fluorescence ratio is 1.02 ± 0.037.

With CGTCCGGGGA, the switch fluorescence ratio came to 1.56 ± 0.075.

Take AATTTGGCAG: the switch fluorescence ratio is 0.99 ± 0.025.

Turning to AACTTGGTGG, the switch fluorescence ratio was 0.944 ± 0.033.

As for GGGGCGGGGA, the switch fluorescence ratio was determined as 0.996 ± 0.045.

ATAACAGAGG: the switch fluorescence ratio was found to be 1.04 ± 0.013.

As for CCAAAGATAT, the switch fluorescence ratio is 1.09 ± 0.03.

As to GCGTAAGTGC, the switch fluorescence ratio was determined as 1.092 ± 0.006.

For the sequence GCCTTACGGT, the switch fluorescence ratio stood at 1.04 ± 0.038.

Consider ATGGCCAGCA, for which the switch fluorescence ratio turned out to be 1.01 ± 0.03.

On to ACGGCCAAGG, for which the switch fluorescence ratio was found to be 1.05 ± 0.031.

Take TAGGTCCAAT: the switch fluorescence ratio is 1.01 ± 0.015.

Turning to TGACGGTAGC, the switch fluorescence ratio is 1.06 ± 0.056.

In the case of GTCGGCGTAA, the switch fluorescence ratio amounted to 0.9982 ± 0.0045.

Regarding TTGTTTATAA, the switch fluorescence ratio worked out at 1.02 ± 0.083.

In the case of TCGTGTTAGG, the switch fluorescence ratio is 1.02 ± 0.022.

Regarding AGGGGGGGTA, the switch fluorescence ratio is 0.997 ± 0.033.

For the sequence TTTGATTAGG, the switch fluorescence ratio stood at 1.01 ± 0.04.

On to ATTGTGGAGC, for which the switch fluorescence ratio turned out to be 1.04 ± 0.061.

As to AATGTGGTTG, the switch fluorescence ratio was determined as 0.997 ± 0.013.

GGTCGCACCA: the switch fluorescence ratio amounted to 1.02 ± 0.033.

Regarding CCATGTCGTA, the switch fluorescence ratio is 0.995 ± 0.016.

The values above are taken from the supplement of paper PMC10126150.
